# Assay results: patent US8304236B2, “Modified biotin-binding protein” (Japan Tobacco Inc., priority 2008, dated 2012)
# Substitutions are numbered along the chain they refer to. In names and notes the source's numbering stands.
# B1: TM2: wild type tamavidin 2, biotin-binding protein from Pleurotus cornucopiae, amino acid sequence SEQ ID NO: 2 (protein, listed as Pleurotus cornucopiae)
# chain: MSDVQSSLTGTWYNELNSKMELTANKDGTLTGKYLSKVGDVYVPYPLSGRYNLQPPAGQGVALGWAVSWENSKIHSATTWSGQFFSESSPVILTQWLLSSSTARGDVWESTLVGNDSFTKTAPTEQQIAHAQLHCRAPRLK
# B2: TM2 D40NR104EK141E: TM2 mutant having mutation of D40N and R104EK141E; SEQ ID NO: 24 (protein)
# chain: B1 chain with D40N, R104E, K141E
# modifications: Synthetic TM2 D40NR104EK141E
# Tests used:
# human serum protein [1] = assay: Non-specific adsorption of low-pI TM2 to human serum protein-immobilized magnetic beads; format: binding; conditions: wild type TM2 = 100
# Procedure: In this embodiment, non-specific binding to human serum was investigated as non-specific adsorption of low-pI TM2 to serum protein-immobilized magnetic beads. Specifically, in order to investigate the non-specific binding of low-pI TM2, the amount of low-pI TM2 adsorbed to magnetic beads to which human serum protein was covalently bonded was measured. TM2 K26A, TM2 K73Q, TM2 R104E, TM2 K141E, and TM2 R104EK141E, which were highly expressed in Escherichia coli, were used as the low-pI TM2 to be investigated.
# Human serum protein and magnetic beads were bound to each other as follows. Magnetic beads having surfaces coated with carboxyl groups (Dynabeads M-270 Carboxylic Acid, Dynal, 210 μL) were washed with 0.01 N sodium hydroxide (210 μL) for 10 minutes and then with ultrapure water (210 μL) for 10 minutes three times. To the washed magnetic beads, 1-ethyl-3-(3-dimethylaminopropyl)carbodiimide hydrochloride (EDC, PIERCE) dissolved in cooled ultrapure water was added into a final concentration of 0.2 M, and the mixture was shaken at room temperature for 30 minutes. Then, the magnetic beads were washed with cooled ultrapure water (210 μL) and then with 50 mM MES buffer (pH 5.0, 210 μL).
# To the magnetic beads, 1 mg/mL human serum protein (CHEMICON, 210 μL) dialyzed with 50 mM MES buffer (pH 5.0) was added. The mixture was shaken at room temperature for 30 minutes to covalently bind the human serum protein to the magnetic beads. The magnetic beads were collected with a magnet to remove the supernatant. The unreacted active groups on the beads were eliminated with 50 mM tris buffer (pH 7.0, 210 μL), and then the magnetic beads were blocked with a PBS buffer (420 μL) containing 0.5% BSA and 0.1% Tween 20. The magnetic beads were suspended in a PBS buffer (210 μL) to obtain human serum protein-immobilized magnetic beads.
# The magnetic beads (7 μL) and 0.56 μg/mL of each low-pI TM2 (100 μL) were mixed for reaction at room temperature for 1 hour. The magnetic beads were collected with a magnetic, and the supernatant was removed. After washing with 20 mM potassium phosphate buffer (500 μL) containing 500 mM sodium chloride, the magnetic beads were mixed with 20 μL of 2×SDS sample buffer (250 mM Tris-HCl, pH 6.8, 20% 2-mercaptoethanol, 20% SDS, 20% glycerol), followed by heating at 95° C. for 20 minutes to dissociate the low-pI TM2 from the magnetic beads.
# This sample was subjected to SDS-PAGE and then western blotting analysis to determine the amount of the low-pI TM2. Anti-tamavidin 2 rabbit antibody and alkaline phosphatase-labeled anti-rabbit IgG goat antibody were used as the primary antibody and the secondary antibody, respectively. The bands were detected with Alkaline Phosphatase Substrate Kit II <VECTOR Black> (VECTRO) and were quantified with Las-3000 (FUJIFILM).
# [2] = Biotin-binding test (Biacore 3000, biotin-LC-BSA immobilized)
# Procedure: High-purity BSA (Sigma, 2 mg) and NHS-LC-biotin (Pierce, 1 mg) were dissolved in 50 mM sodium borate (pH 8.0, 1 mL) and were incubated at 4° C. for 2 hours. The solution was put into a dialysis tube (MWCO 6-8,000) and was dialyzed with 50 mM sodium carbonate (pH 6.7) at 4° C. overnight. The resulting biotin-LC-BSA conjugate (MW: 67 kDa, 30 μM) was used as a ligand for a Biacore (registered trademark) biosensor.
# Biotin-LC-BSA and BSA serving as a negative control were immobilized on CM5 sensor chips by amine coupling method. The amount for immobilization was adjusted to about 200 RU. The chips to which BSA was immobilized were disposed in flow cells 1 and 3, while the chips to which biotin-LC-BSA was immobilized were disposed in flow cells 2 and 4.
# Accordingly, seven step measurement (3.125, 6.25, […], 25, 50, 100, and 200 nM) was conducted from the lowest concentration, without recycling steps. The data of BSA as reference was deducted from the data of BSA-LC-biotin. The measurement was performed at 25° C. The resulting sensorgrams were subjected to reaction kinetics analysis using analysis software BIAevaluation ver. 4.1 with a 1:1 binding model to calculate the binding rate constant (ka) and the dissociation rate constant (kd). The dissociation constant (KD) was determined from kd/ka. In the case where no recycling step is employed, the Rmax (maximum amount of binding analyte) decreases at each measurement. Accordingly, in the analysis, the Rmax was calculated by conducting local fitting for each concentration, and only the data of analyte concentrations that were approximated to the 1:1 binding model was employed.
# TM2 and HALU TM2 used as analytes were prepared by purification with 2-iminobiotin agarose in accordance with a common method and dialysis with 20MM KPi (pH 7) overnight. The analytes were each adjusted to about 50 μg/mL in 10 mM acetate buffer (pH 5, Biacore).
# The immobilization of the ligand and measurement and analysis of specific interaction with the analytes were conducted as in paragraph 2-7-2).
# human serum protein [3] = assay: Non-specific adsorption of serum protein to HALU TM2-immobilized magnetic beads; format: binding; conditions: human serum diluted 800 times, anti-human IgG detection
# Procedure: In this Example, non-specific adsorption of serum protein to HALU TM2-immobilized magnetic beads was investigated.
# TM2 D40NR104E and TM2 D40NR104EK141E were bonded covalently to magnetic beads (Dynabeads M-270 Carboxylic Acid, Dynal) by the process described in paragraph 1-9) of Example 1, and the amount of human serum protein adsorbed to the beads was measured. The amount of each HALU TM2 immobilized to the magnetic beads was adjusted to 10 μg/100 μL beads. Human serum (CHEMICON) was diluted 800 times with a PBS buffer, and the HALU TM2-immobilized magnetic beads (50 μL) to which a certain amount of protein was immobilized were added to the diluted human serum, followed by mixing by turning the tube containing the beads upside down at room temperature for 15 minutes. The magnetic beads were washed with a PBS buffer containing 0.1% Tween 20 (PBST, 500 μL) four times and were then subjected to antigen-antibody reaction at room temperature for 15 minutes with HRP-labeled anti-human IgG mouse antibody (100 μL) diluted 5000 times with PBST containing 0.5% BSA. Subsequently, the beads were washed with PBST (500 μL) five times, followed by color development with 1-Step Ultra TMB-ELISA (100 μL). After termination of the color development with 2M sulfuric acid (100 μL), the magnetic beads were collected with a magnet. The absorbance at 450 nm of the supernatant was measured with an Infinite 200 microplate reader.
molecule,measurement,setting,value
B1,Non-specific binding of serum protein (%),human serum protein [1],100%
same,dissociation from biotin-LC-BSA,[2]; dissociation monitored for 60 minutes,not dissociated
same,Non-specific binding to serum protein (A450),human serum protein [3],0.67
B2,ka,[2]; Biotin-BSA (22.4 Å),1.5 × 10^6
same,kd,"[2]; Biotin-BSA (22.4 Å), values in parentheses",(1.4 × 10^−8)
same,Non-specific binding to serum protein (A450),human serum protein [3],low
same,Non-specific binding to serum protein (A450),human serum protein [3]; listed as D40NR104EK141E,0.45
